Experimental data published in the supplement of paper PMC7877785.
± gives the uncertainty stated by the source.

Assay: self-splicing fitness, log relative to wild type (ln ratio); higher = more splicing; Tetrahymena group I intron in knt gene, E. coli kanamycin selection, DiMSum; sequences stand for … in CUCUCU…GGAGGGAAAAGUUAUCAGGCAUGCACCUGGUAGCUAGUCUUUAAACCAAUAGAUUGCAUCGGUUUAAAAGGCAAGACCGUCAAAUUGCGGGAAAGGGGUCAACAGCCGUUCAGUACCAAGUCUCAGGGGAAACUUUGAGAUGGCCUUGCAAAGGGUAUGGUAAUAAGCUGACGGACAUGGUCCUAACCACGCAGCCAAGUCCUAAGUCAACAGAUCUUCUGUUGAUAUGGAUGCAGUUCACAGACUAAAUGUCGGUCGGGGAAGAUGUAUUCUUCUCAUAAGAUAUAGUCGGACCUCUCCUUAAUGGGAGCUAGCGGAUGAAGUGAUGCAACACUGGAGCCGCUGGGAACUAAUUUGUAUGCGAAAGUAUAUUGAUUAGUUUUGGAGUACUCGUGGUCG
Outline: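 Colonies from six replicate transformations of E. coli BL21(DE3) were pooled and amplicon-sequenced on an Illumina HiSeq 2500. The library placed an intron with all eight P1ex-region nucleotides randomised inside the knt kanamycin-resistance gene on pET-22b(+), and cells grew overnight at 37°C or 30°C on LB agar with or without 25 μg/mL kanamycin (plus 100 μg/mL carbenicillin, 50 μM IPTG, 0.2% rhamnose). Fitness is the DiMSum error-weighted combination of wild-type-normalised replicate fold changes, kanamycin versus none.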

| Sequence | self-splicing fitness (ln) (30 °C) | self-splicing fitness (ln) (37 °C) |
| --- | --- | --- |
| AGUCAGCAAUAUUACGGUAU | -0.592 ± 0.05 | -0.99 ± 0.063 |
| CUCUAGCAAUAUUACGUGUC | -3.45 ± 0.21 | -3.91 ± 0.31 |
| UGAUAGCAAUAUUACGGUUC |  | -1.46 ± 0.27 |
| ACCUAGCAAUAUUACGCGAU | -2.32 ± 0.078 | -0.981 ± 0.087 |
| UAAGAGCAAUAUUACGCGCC |  | -1.6 ± 0.38 |
| GGUAAGCAAUAUUACGAGGG | -2.38 ± 0.14 | -2.98 ± 0.24 |
| UUCGAGCAAUAUUACGGCCG |  | -1.41 ± 0.35 |
| GCUAAGCAAUAUUACGACCA | -2.09 ± 0.21 | -1.34 ± 0.26 |
| UUUGAGCAAUAUUACGUUUU | -3.55 ± 0.19 | -2.65 ± 0.17 |
| CAAGAGCAAUAUUACGACAU | -3.534 ± 0.024 | -2.85 ± 0.041 |
| ACUAAGCAAUAUUACGGUGG | -3.1 ± 0.11 | -2.84 ± 0.16 |
| GCGUAGCAAUAUUACGUUCG | -1.48 ± 0.33 | -1.52 ± 0.32 |
| UGUCAGCAAUAUUACGUUGA | -3.77 ± 0.23 | -2.47 ± 0.19 |
| GACUAGCAAUAUUACGUCGU | -3.23 ± 0.18 | -1.47 ± 0.13 |
| CCAGAGCAAUAUUACGAGGU | -3.71 ± 0.24 | -2.77 ± 0.29 |
| UGACAGCAAUAUUACGCAAG | -3.51 ± 0.27 | -2.73 ± 0.21 |
| CUAUAGCAAUAUUACGGCUC | -3.46 ± 0.36 | -2.47 ± 0.48 |
| UUCAAGCAAUAUUACGCCAA | -0.664 ± 0.11 | -0.538 ± 0.11 |
| UGGUAGCAAUAUUACGUAAA | -1.01 ± 0.099 | -0.497 ± 0.11 |
| GGAAAGCAAUAUUACGCGCG | -0.394 ± 0.08 | -0.275 ± 0.12 |

| Sequence | self-splicing fitness (ln) (30 °C) | self-splicing fitness (ln) (37 °C) |
| --- | --- | --- |
| CAAUAGCAAUAUUACGAAGU | -3.76 ± 0.15 | -2.64 ± 0.15 |
| GAUGAGCAAUAUUACGUGGU | -3.36 ± 0.37 |  |
| AAUUAGCAAUAUUACGCGCC | -0.89 ± 0.23 | -0.821 ± 0.34 |
| CGCUAGCAAUAUUACGGCCC | -1.74 ± 0.19 | 0.036 ± 0.24 |
| UGAAAGCAAUAUUACGCAAU | -2.16 ± 0.24 | 0.457 ± 0.23 |
| AUGUAGCAAUAUUACGUACU | -0.0156 ± 0.06 | -0.16 ± 0.073 |
| GGGAAGCAAUAUUACGCAGG | -3.02 ± 0.22 | -2.32 ± 0.28 |
| AUGUAGCAAUAUUACGUUGU | -3.85 ± 0.15 | -1.27 ± 0.092 |
| GUUCAGCAAUAUUACGCUCA | -0.457 ± 0.11 | -0.298 ± 0.13 |
| UAUCAGCAAUAUUACGCAGG | -1.01 ± 0.055 | 0.028 ± 0.07 |
| UUAAAGCAAUAUUACGAACA | -0.0579 ± 0.13 | 0.708 ± 0.18 |
| CGGUAGCAAUAUUACGACGU | -1.76 ± 0.13 | -1.08 ± 0.17 |
| UCCAAGCAAUAUUACGUGAG | -2.37 ± 0.098 | -0.996 ± 0.097 |
| AUAUAGCAAUAUUACGAGGC | -2.74 ± 0.26 |  |
| CGUGAGCAAUAUUACGUCCA | -2.37 ± 0.26 | -2.38 ± 0.34 |
| UCGCAGCAAUAUUACGGUCA | -0.966 ± 0.1 | 0.119 ± 0.11 |
| CUAUAGCAAUAUUACGUGUU | -3.74 ± 0.16 | -3.15 ± 0.27 |
| UAUGAGCAAUAUUACGCAGG | -2.59 ± 0.26 | -2.34 ± 0.22 |
| GCUGAGCAAUAUUACGAGAG | -2.49 ± 0.23 | -2.41 ± 0.22 |
